# In IntAct's records for PubMed 23877428:
# B1: Scaffold protein ILK (Homo sapiens), Q13418 (parent)
# chain: MDDIFTQCREGNAVAVRLWLDNTENDLNQGDDHGFSPLHWACREGRSAVVEMLIMRGARINVMNRGDDTPLHLAASHGHRDIVQKLLQYKADINAVNEHGNVPLHYACFWGQDQVAEDLVANGALVSICNKYGEMPVDKAKAPLRELLRERAEKMGQNLNRIPYKDTFWKGTTRTRPRNGTLNKHSGIDFKQLNFLTKLNENHSGELWKGRWQGNDIVVKVLKVRDWSTRKSRDFNEECPRLRIFSHPNVLPVLGACQSPPAPHPTLITHWMPYGSLYNVLHEGTNFVVDQSQAVKFALDMARGMAFLHTLEPLIPRHALNSRSVMIDEDMTARISMADVKFSFQCPGRMYAPAWVAPEALQKKPEDTNRRSADMWSFAVLLWELVTREVPFADLSNMEIGMKVALEGLRPTIPPGISPHVCKLMKICMNEDPAKRPKFDMIVPILEKMQDK
# partner: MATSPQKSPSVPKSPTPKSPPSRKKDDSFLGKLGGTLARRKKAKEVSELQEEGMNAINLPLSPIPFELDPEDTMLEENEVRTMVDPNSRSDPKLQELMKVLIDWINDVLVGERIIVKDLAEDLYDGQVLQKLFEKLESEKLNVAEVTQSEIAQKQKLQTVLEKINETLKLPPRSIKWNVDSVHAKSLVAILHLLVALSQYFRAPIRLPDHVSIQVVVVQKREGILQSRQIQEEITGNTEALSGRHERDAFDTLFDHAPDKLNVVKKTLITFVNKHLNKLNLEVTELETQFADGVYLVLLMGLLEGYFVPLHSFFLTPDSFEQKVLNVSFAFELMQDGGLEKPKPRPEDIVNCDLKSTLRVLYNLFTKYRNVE
# Variants of: B1
# Settings: with parva_human PARVA
row,Variant,effect of a mutation on the interaction
1,MDDIFTQCREGNAVAVRLWLDNTENDLNQGDDHGFSPLHWACREGRSAVVEMLIMRGARINVMNRGDDTPLHLAASHGHRDIVQKLLQYKADINAVNEHGNVPLHYACFWGQDQVAEDLVANGALVSICNKYGEMPVDKAKAPLRELLRERAEKMGQNLNRIPYKDTFWKGTTRTRPRNGTLNKHSGIDFKQLNFLTKLNENHSGELWKGRWQGNDIVVKVLKVRDWSTRKSRDFNEECPRLRIFSHPNVLPVLGACQSPPAPHPTLITHWMPYGSLYNVLHEGTNFVVDQSQAVKFALDMARGMAFLHTLEPLIPRHALNSRSVMIDEDMTARISMADVKFSFQCPGRMYAPAWVAPEALQKKPEDTNRRSADMWSFAVLLWELVTREVPFADLSNMEIGAAVALEGLRPTIPPGISPHVCKLMKICMNEDPAKRPKFDMIVPILEKMQDK [M402A;K403A],disrupting interaction
